# Experimental data published in patent publication US20090137002A1 (published 2009).
# T1: recombinant mouse EphB2 (mouse, UniProt P54763 19-540, limits assumed)
# T1 construct: also called mEphB2
# T1 sequence (looked up): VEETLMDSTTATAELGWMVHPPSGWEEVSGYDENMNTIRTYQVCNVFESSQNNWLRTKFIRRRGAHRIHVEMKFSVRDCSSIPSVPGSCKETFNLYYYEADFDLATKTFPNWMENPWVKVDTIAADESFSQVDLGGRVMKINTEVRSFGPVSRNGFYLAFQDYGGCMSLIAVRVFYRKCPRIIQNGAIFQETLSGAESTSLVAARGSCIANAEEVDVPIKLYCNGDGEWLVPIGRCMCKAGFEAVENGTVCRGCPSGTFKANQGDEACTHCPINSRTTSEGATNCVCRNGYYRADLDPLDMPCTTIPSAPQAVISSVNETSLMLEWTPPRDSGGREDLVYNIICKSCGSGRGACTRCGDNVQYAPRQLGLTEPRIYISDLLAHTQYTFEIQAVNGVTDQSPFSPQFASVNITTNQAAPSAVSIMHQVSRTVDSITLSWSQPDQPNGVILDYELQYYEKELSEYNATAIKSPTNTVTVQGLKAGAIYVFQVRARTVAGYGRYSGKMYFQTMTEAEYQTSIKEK
# T2: myc-tagged human EphB4 on transfected CHO cells (human, UniProt P54760 16-987)
# T2 construct: whole, on cells; also called CHO-EphB4; CHO-hEphB4; not shown: myc tag
# T2 sequence (looked up): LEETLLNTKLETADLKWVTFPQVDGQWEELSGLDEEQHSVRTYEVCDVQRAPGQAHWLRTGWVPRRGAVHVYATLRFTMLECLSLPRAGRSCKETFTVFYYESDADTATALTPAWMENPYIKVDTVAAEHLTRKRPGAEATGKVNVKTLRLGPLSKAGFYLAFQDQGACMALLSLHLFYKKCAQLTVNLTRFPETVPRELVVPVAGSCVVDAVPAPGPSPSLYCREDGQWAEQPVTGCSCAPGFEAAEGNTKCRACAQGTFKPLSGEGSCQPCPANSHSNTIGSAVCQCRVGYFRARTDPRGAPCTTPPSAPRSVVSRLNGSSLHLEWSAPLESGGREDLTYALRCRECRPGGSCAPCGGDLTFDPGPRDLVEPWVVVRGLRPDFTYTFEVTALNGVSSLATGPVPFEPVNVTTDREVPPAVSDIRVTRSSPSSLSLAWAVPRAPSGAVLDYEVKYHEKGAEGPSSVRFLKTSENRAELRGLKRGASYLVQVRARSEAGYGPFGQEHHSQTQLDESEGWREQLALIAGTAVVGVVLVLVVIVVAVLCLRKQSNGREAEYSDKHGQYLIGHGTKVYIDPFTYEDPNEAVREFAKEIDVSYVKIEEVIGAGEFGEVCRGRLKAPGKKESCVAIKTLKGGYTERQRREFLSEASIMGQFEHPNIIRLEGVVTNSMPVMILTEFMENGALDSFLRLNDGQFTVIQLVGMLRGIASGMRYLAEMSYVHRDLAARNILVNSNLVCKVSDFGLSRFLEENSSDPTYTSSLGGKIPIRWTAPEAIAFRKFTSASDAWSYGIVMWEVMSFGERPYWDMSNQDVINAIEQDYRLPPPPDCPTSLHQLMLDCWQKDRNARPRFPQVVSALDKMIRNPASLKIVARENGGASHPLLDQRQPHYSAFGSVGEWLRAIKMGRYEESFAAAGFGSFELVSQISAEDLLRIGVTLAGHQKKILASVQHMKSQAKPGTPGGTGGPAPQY
# What was measured:
# [1] = target: T1, recombinant mouse EphB2; assay: ELISA on coated receptor
# Description: (§1) A 96-well plate was coated with recombinant mEphB1, -2, -3, -4, -6, mEphA4 and hEphB4 in PBS o/n at 4° C. (5 μg/mL; 100 μL/well). The next day, the antigen was discarded and the plate blocked with 3% BSA/PBS (300 μl/well) for 2 hrs at room temperature (RT). Blocking solution was discarded and anti-EphB4 Fabs were added to the wells at a concentration of 20 μg/mL in 1% BSA/PBS and incubated for 1 hr at RT. Fabs were discarded and the plate was washed 3× with PBS. Anti-human F(ab′)₂—HRP was added at a concentration recommended by the manufacturer in 1% BSA/PBS and incubated for 1 hr at RT. The plate was washed 3× with PBS and 100 μL/well chemifluorescent substrate was added. After development, fluorescence was measured in a fluorescence reader.
# [2] = target: T3, recombinant mouse EphA4-Fc fusion protein (mouse, UniProt Q03137 20-547, limits assumed); assay: ELISA on coated receptor
# T3 construct: also called mEphA4; not shown: Fc part, not described
# T3 sequence (Q03137 20-547 limits assumed): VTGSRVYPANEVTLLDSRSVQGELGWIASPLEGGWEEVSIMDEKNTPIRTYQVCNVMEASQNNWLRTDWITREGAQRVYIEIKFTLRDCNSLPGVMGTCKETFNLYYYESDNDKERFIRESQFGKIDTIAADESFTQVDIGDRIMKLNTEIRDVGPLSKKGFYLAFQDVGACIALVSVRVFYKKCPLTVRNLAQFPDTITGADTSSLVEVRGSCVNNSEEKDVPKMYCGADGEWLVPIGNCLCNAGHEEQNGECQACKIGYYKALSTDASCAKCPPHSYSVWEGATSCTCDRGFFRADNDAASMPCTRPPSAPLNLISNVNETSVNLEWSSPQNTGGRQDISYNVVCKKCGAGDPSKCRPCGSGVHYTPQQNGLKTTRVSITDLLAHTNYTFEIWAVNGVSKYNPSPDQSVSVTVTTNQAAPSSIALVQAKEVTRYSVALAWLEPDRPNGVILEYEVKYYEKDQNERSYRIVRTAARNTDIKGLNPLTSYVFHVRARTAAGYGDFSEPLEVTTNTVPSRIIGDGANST
# Description: as §1
# [3] = target: T2, myc-tagged human EphB4 on transfected …; assay: FACS, inhibition of murine ephrin-B2 binding to CHO-EphB4 cells
# Description: CHO-EphB4 cells were preincubated with matured Fab at different concentrations followed by addition of the ligand, murine ephrin-B2 (extracellular domain, 98% identity to human Ephrin-B2). Receptor-bound ephrin-B2 was then detected via biotinylated anti-mouse ephrin-B2 antibody (R&D Systems) and streptavidin-PE. […] The MOR07310 derivatives perform slightly better than the MOR03641 derivatives. The IC50 values of the x-cloned binders are in the same range as those of their cloning parentals.
binding result [1],binding result [2],IC50 [3] [nM],Binder
no binding (tested: 20 µg/mL),no binding (tested: 20 µg/mL),–,"MOR03639 Fab (Fab, V domains shown, Monomeric HuCAL Fab (VH3, lambda3), purified, MH-tagged) VH: QVQLVESGGGLVQPGGSLRLSCAASGFTFSNYYLHWVRQAPGKGLEWVSGISYSGSSTYYADSVKGRFTISRDNSKNTLYLQMNSLRAEDTAVYYCARFYQRRQIPHGYDVWGQGTLVTVSS VL: DIELTQPPSVSVAPGQTARISCSGDNIGDYYVHWYQQKPGQAPVLVIYRDSNRPSGIPERFSGSNSGNTATLTISGTQAEDEADYYCGSYDMPFGGTVFGGGTKLTVLG"
no binding (tested: 20 µg/mL),no binding (tested: 20 µg/mL),4.7,"MOR03641 Fab (Fab, V domains shown, Monomeric HuCAL Fab (VH1A, kappa1), purified, MH-tagged; also called 3541 [sic]) VH: QVQLVQSGAEVKKPGSSVKVSCKASGGTFSTYAISWVRQAPGQGLEWMGRIIPIFGTANYAQKFQGRVTITADESTSTAYMELSSLRSEDTAVYYCARSSYTILTTYYNYNAMDNWGQGTLVTVSS VL: DIQMTQSPSSLSASVGDRVTITCRASQNINNFLNWYQQKPGKAPKLLIYGSSILQSGVPSRFSGSGSGTDFTLTISSLQPEDFAVYYCHQVSDTSDTFGQGTKVEIKR"
